This passage reports Kd results from the Immune Epitope Database (IEDB).

One assay has as its target HLA-A*01:01. Description: IEDB peptide-MHC binding, purified MHC/direct/fluorescence; filed as Kd, often an IC50 or EC50 that approximates it; ≥ and ≤ were set here for values at or beyond the usual limits of such assays.
Assay [1] deals with HLA-A*02:01. Described as above.
The next assay concerns the target HLA-A*03:01. Described as above.
The target of another assay is HLA-A*11:01. The description is as above.
The next assay concerns the target HLA-A*24:03. Described as above.
The target in assay [2] is HLA-A*26:01. Described as above.
The target of assay [3] is HLA-A*69:01. The description is as above.
Another assay concerns the target HLA-B*07:02. The description is as above.
Another assay concerns the target HLA-B*08:01. The assay is described as above.
Assay [4] deals with HLA-B*15:01. The assay is described as above.
The target in a further assay is HLA-B*27:05. The description is as above.
A further assay deals with HLA-B*40:01. The description is as above.
For a further assay, the target named is HLA-B*44:02. Described as above.
Another assay deals with HLA-B*58:01. The assay is described as above.
The target in assay [5] is HLA-A*26:01. Briefly: IEDB peptide-MHC binding, purified MHC/competitive/fluorescence; filed as Kd, often an IC50 or EC50 that approximates it; ≥ and ≤ were set here for values at or beyond the usual limits of such assays.
The target of assay [6] is HLA-A*69:01. The assay is described as above.
The target of a further assay is HLA-B*15:17. The description is as above.
The target of the next assay is HLA-B*27:03. Described as above. Conditions: source organism: Homo sapiens.
The target in assay [7] is HLA-B*46:01. The assay is described as above.
The target in a further assay is HLA-B*51:01. The assay is described as above.
The target in assay [8] is HLA-B*57:01. Described as above.
In the next assay the target is HLA-A*02:03. Description: IEDB peptide-MHC binding, purified MHC/direct/fluorescence; filed as Kd, often an IC50 or EC50 that approximates it; ≥ and ≤ were set here for values at or beyond the usual limits of such assays. Particulars: source organism: Zaire ebolavirus.
The target in another assay is HLA-A*02:12. The assay is described as above. Conditions: source organism: Zaire ebolavirus.
A further assay concerns the target HLA-A*02:16. The description is as above. Conditions: source organism: Zaire ebolavirus.
A further assay has as its target HLA-A*02:19. Described as above. Particulars: source organism: Zaire ebolavirus.
Another assay addresses HLA-A*29:02. The assay is described as above.
A further assay has as its target HLA-A*68:02. Described as above. Particulars: source organism: Zaire ebolavirus.
The target in assay [9] is HLA-A*02:01. Description: IEDB peptide-MHC binding, purified MHC/competitive/fluorescence; filed as Kd, often an IC50 or EC50 that approximates it; ≥ and ≤ were set here for values at or beyond the usual limits of such assays.
Assay [10] addresses HLA-B*15:01. The assay is described as above.
Assay [11] concerns the target HLA-B*18:01. The description is as above.
For the next assay, the target named is HLA-B*39:01. The assay is described as above.
In another assay the target is HLA-A*31:01. Description: IEDB peptide-MHC binding, purified MHC/direct/fluorescence; filed as Kd, often an IC50 or EC50 that approximates it; ≥ and ≤ were set here for values at or beyond the usual limits of such assays.
The target in assay [12] is HLA-B*18:01. The assay is described as above.
In assay [13] the target is HLA-B*46:01. The assay is described as above.
The next assay addresses HLA-B*48:01. The assay is described as above.
Assay [14] deals with HLA-B*57:01. The description is as above.
Setting [15] is: source organism: Vibrio cholerae.
Setting [16] is: source organism: Zaire ebolavirus.
The mark [17] stands for this setting: source organism: Haemophilus influenzae.
The mark [18] stands for this setting: source organism: Yellow fever virus.
Where [19] appears, read: source organism: Camelpox virus M-96.

For AYLLQHLDL, the Kd with HLA-A*01:01 (setting [15]) is at least 20 µM; with HLA-A*02:01 [1] (setting [15]) it was at least 20 µM; with HLA-A*03:01 (setting [15]) it was at least 20 µM; with HLA-A*11:01 (setting [15]), at least 20 µM; with HLA-A*24:03 (setting [15]), 0.00153 µM; with HLA-A*26:01 [2] (setting [15]) it was at least 20 µM. For the same sequence, the Kd in the assay with HLA-A*69:01 [3] (setting [15]), in the assay with HLA-B*07:02 (setting [15]), with HLA-B*08:01 (setting [15]), with HLA-B*15:01 [4] (setting [15]), with HLA-B*27:05 (setting [15]) and with HLA-B*40:01 (setting [15]) was at least 20 µM throughout. In addition, the Kd with HLA-B*44:02 (setting [15]) and with HLA-B*58:01 (setting [15]) was at least 20 µM throughout.

As for FQWHEAMFL, the Kd with HLA-A*02:01 [1] (source organism: Homo sapiens) is 0.0002 µM; with HLA-A*26:01 [5] (source organism: Homo sapiens) it was at least 20 µM; in the assay with HLA-A*69:01 [6] (source organism: Homo sapiens) it was at least 20 µM; in the assay with HLA-B*15:17 (source organism: Homo sapiens), at least 20 µM; with HLA-B*27:03, at least 20 µM; with HLA-B*46:01 [7] (source organism: Homo sapiens), at least 20 µM. Also, the Kd in the assay with HLA-B*51:01 (source organism: Homo sapiens) and with HLA-B*57:01 [8] (source organism: Homo sapiens) was at least 20 µM throughout.

Regarding KRLQILGYL, the Kd with HLA-A*02:03, with HLA-A*02:12, with HLA-A*02:16, with HLA-A*02:19, with HLA-A*03:01 (setting [16]) and in the assay with HLA-A*24:03 (setting [16]) was at least 20 µM in each case. Moreover, the Kd is at least 20 µM with HLA-A*29:02 (setting [16]); at least 20 µM with HLA-A*68:02; 0.204 µM with HLA-B*27:05 (source organism: Sudan ebolavirus - Maleo (1979)); at least 20 µM with HLA-A*02:01 [9] (setting [16]); at least 20 µM with HLA-A*26:01 [5] (setting [16]); at least 20 µM with HLA-A*69:01 [6] (setting [16]). Also, the Kd with HLA-B*15:01 [10] (setting [16]), with HLA-B*15:17 (setting [16]), with HLA-B*18:01 [11] (setting [16]), in the assay with HLA-B*39:01 (setting [16]), in the assay with HLA-B*46:01 [7] (setting [16]) and with HLA-B*51:01 (setting [16]) was at least 20 µM in each case. This sequence also returned a Kd with HLA-B*57:01 [8] (setting [16]) of at least 20 µM.

With VYFSPWFFL, the dissociation constant (Kd) is at least 20 µM with HLA-A*01:01 (setting [17]); at least 20 µM in the assay with HLA-A*02:01 [1] (setting [17]); at least 20 µM in the assay with HLA-A*03:01 (setting [17]); at least 20 µM in the assay with HLA-A*11:01 (setting [17]); 0.0197 µM with HLA-A*24:03 (setting [17]); at least 20 µM in the assay with HLA-A*26:01 [2] (setting [17]). Moreover, the Kd with HLA-A*69:01 [3] (setting [17]), with HLA-B*07:02 (setting [17]), in the assay with HLA-B*08:01 (setting [17]), in the assay with HLA-B*15:01 [4] (setting [17]), with HLA-B*27:05 (setting [17]) and with HLA-B*40:01 (setting [17]) was at least 20 µM each time. This sequence had a Kd with HLA-B*58:01 (setting [17]) of at least 20 µM.

SCRVKLSAL: the Kd with HLA-A*01:01 (setting [18]), with HLA-A*02:01 [1] (setting [18]), in the assay with HLA-A*03:01 (setting [18]), with HLA-A*11:01 (setting [18]), with HLA-A*29:02 (setting [18]) and in the assay with HLA-A*31:01 (setting [18]) was at least 20 µM throughout. Also, the Kd with HLA-A*69:01 [3] (setting [18]), in the assay with HLA-B*15:01 [4] (setting [18]), in the assay with HLA-B*18:01 [12] (setting [18]), with HLA-B*27:05 (setting [18]), with HLA-B*40:01 (setting [18]) and with HLA-B*44:02 (setting [18]) was at least 20 µM each time. Further, the Kd in the assay with HLA-B*46:01 [13] (setting [18]), with HLA-B*48:01 (setting [18]), with HLA-B*57:01 [14] (setting [18]) and with HLA-B*58:01 (setting [18]) was at least 20 µM in each case.

Take NSNINVINY: the Kd with HLA-A*01:01 (setting [19]) was 5.44 µM; with HLA-A*02:01 [1] (setting [19]) it was at least 20 µM; with HLA-A*03:01 (setting [19]) it was at least 20 µM; with HLA-A*11:01 (setting [19]), at least 20 µM; with HLA-A*31:01 (setting [19]), at least 20 µM; with HLA-A*69:01 [3] (setting [19]) it was at least 20 µM. Moreover, the Kd in the assay with HLA-B*18:01 [12] (setting [19]), in the assay with HLA-B*27:05 (setting [19]), with HLA-B*40:01 (setting [19]), in the assay with HLA-B*46:01 [13] (setting [19]), in the assay with HLA-B*48:01 (setting [19]) and with HLA-B*57:01 [14] (setting [19]) was at least 20 µM in each case. The Kd with HLA-B*58:01 (setting [19]) and with HLA-B*15:17 (source organism: Vaccinia virus WR) was at least 20 µM each time.

VTENKKIQY: the Kd with HLA-A*02:01 [9] (source organism: Homo sapiens), with HLA-A*26:01 [5] (source organism: Homo sapiens), in the assay with HLA-A*69:01 [6] (source organism: Homo sapiens), in the assay with HLA-B*15:01 [10] (source organism: Homo sapiens), with HLA-B*15:17 (source organism: Homo sapiens) and with HLA-B*18:01 [11] (source organism: Homo sapiens) was at least 20 µM in each case. For the same sequence, the Kd in the assay with HLA-B*27:03, with HLA-B*39:01 (source organism: Homo sapiens), with HLA-B*46:01 [7] (source organism: Homo sapiens), with HLA-B*51:01 (source organism: Homo sapiens) and with HLA-B*57:01 [8] (source organism: Homo sapiens) was at least 20 µM throughout.

As a reminder, the Kd is a measure of binding affinity in units of concentration.
